Assay results taken from publication PMC12657218, “The Panoptes system uses decoy cyclic nucleotides to defend against phage” (Nature, 2025).

Assays:
[1] = target: T1, Acb2 (Tequatrovirus T4, UniProt P13314); experiment: isothermal titration calorimetry; assay type: binding; conditions: read-out: apparent Kd
T1 construct: full-length, N-terminal 6xHis-hSUMO2 tag cleaved with hSENP2; expressed in E. coli
T1 sequence (P13314 1-88): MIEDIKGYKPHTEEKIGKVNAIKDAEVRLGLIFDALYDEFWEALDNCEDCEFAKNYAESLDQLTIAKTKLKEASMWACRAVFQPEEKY

[2] = target: OptS from Klebsiella pneumoniae KP67 (minimal CRISPR polymerase, mCpol) (Klebsiella pneumoniae KP67); experiment: SEC; HiLoad 16/600 Superdex 200 pg, 20 mM HEPES pH 7.5, 250 mM KCl, 1 mM TCEP-KOH; elution volume compared with molecular weight standards
[3] = target: OptS from Klebsiella pneumoniae KP67 (minimal CRISPR polymerase, mCpol) (Klebsiella pneumoniae KP67); experiment: mass photometry; KpOptS at 50 nM in 20 mM HEPES pH 7.5, 250 mM KCl, room temperature; β-amylase as calibration standard
[4] = target: OptS from Klebsiella pneumoniae KP67 (minimal CRISPR polymerase, mCpol) (Klebsiella pneumoniae KP67); experiment: crystal structure; apo KpOptS, 1.75 Å, four copies in the asymmetric unit; crystals from 8% PEG 4000, hanging drop, room temperature
[5] = target: T2, VnOptS (Vibrio navarrensis, UniProt A0A099LXT1); assay type: biochemical; conditions: MnCl2 1 mM, MgSO4 10 mM, 20 mM HEPES-KOH pH 7.4, 100 mM NaCl; with ATP, GTP, UTP, CTP; from ATP and GTP
T2 construct: gene EA26_14275; N-terminal His6 tag with or without hSUMO2; expressed in E. coli

Nc1ncnc2c1ncn2[C@@H]1O[C@@H]2COP(=O)(O)O[C@@H]3[C@H](O)[C@@H](COP(=O)(O)O[C@H]2[C@H]1O)O[C@H]3n1cnc2c(N)ncnc21 [2′,3′-c-di-AMP]
Kd [1]: ~0.062 µM

OptS from Klebsiella pneumoniae KP67 (minimal CRISPR polymerase, mCpol) (enzyme)
stoichiometry N [2]: > 2
stoichiometry N [3]: 4
stoichiometry N [4]: 4

Nc1nc2c(ncn2[C@@H]2O[C@@H]3COP(=O)(O)O[C@@H]4[C@H](O)[C@@H](COP(=O)(O)O[C@H]3[C@H]2O)O[C@H]4n2cnc3c(N)ncnc32)c(=O)[nH]1 [3′,2′-cGAMP]
HPLC and MS of products [5]: The most abundant product of the in vitro reactions was a linkage isomer of cyclic GMP-AMP
